# Laboratory results as given in patent US12104181 (University of Texas, dated 2024).
# B1: HA-tagged MenV 2BC (other)
# chain: PFTFKPRQRPVFQTQGAAVSSMAQTLLPNDLASKAMGSAFTALLDANEDAQKAMKIIKTLSSLSDAWENVKGTLNNPEFWKQLLSRCVQLIAGMTIAVMHPDPLTLLCLGVLTAAEITSQTSLCEEIAAKFKTIFTTPPPRFPVISLFQQQSPLKQVNDVFSLAKNLDWAVKTVEKVVDWFGTWVAQEEREQTLDQLLQRFPEHAKRISDLRNGMAAYVECKESFDFFEKLYNQAVKEKRTGIAAVCEKFRQKHDHATARCEPVVIVLRGDAGQGKSLSSQIIAQAVSKTIFGRQSVYSLPPDSDFFDGYENQFAAIMDDLGQNPDGSDFTTFCQMVSTTNLLPNMASLERKGTPFTSQLVVATTNLPEFRPVTIAHYPAVERRITFDYSVSAGPVCSKTEAGCKVLDVERAFRPTGDAPLPCFQNNCLFLEKAGLQFRDNRSKEILSLVDVIERAVTRIERKKKVLTAVQTLVAQ
# notes: domain: 2BC
# Biological target: T1, TRIM7-3F (TRIM7 with C-terminal 3×FLAG epitope) (human, UniProt Q9C029 1-511)
# T1 construct: also called WT TRIM7-3F; 3×Flag-tagged TRIM7
# Assay: co-IP with anti-HA beads from co-transfected 293T cells, Western blot
binder,measurement,value
B1,binding result,no binding
